Experiment [1] has as its target soluble DR5-Fc fusion protein (UniProt O14763). Briefly: BLI (ForteBio Octet), biotin-labeled DR5-Fc on streptavidin sensors. A general note: In BLI a coated tip is dipped into the sample, and binding shifts an interference pattern.
Experiment [2] shares this target. The experiment can be described thus: BLI (ForteBio Octet), ratio of koff against TRAIL-Trimer.
Experiment [3] shares this target. Briefly: BLI (ForteBio Octet), ratio of kon against TRAIL-Trimer.
Experiment [4] shares this target. The experiment can be described thus: BLI (ForteBio Octet), biotin-labeled DR5-Fc on streptavidin sensors, analyte 15.4 nM-123.5 nM.

Sequence of soluble DR5-Fc fusion protein (O14763 56-182 limits assumed): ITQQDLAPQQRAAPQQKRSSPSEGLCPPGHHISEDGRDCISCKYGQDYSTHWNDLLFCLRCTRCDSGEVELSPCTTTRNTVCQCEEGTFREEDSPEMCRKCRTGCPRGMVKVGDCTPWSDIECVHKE
Sequence of native TRAIL (recombinant soluble human TRAIL from E. coli) (P50591 114-281 limits assumed): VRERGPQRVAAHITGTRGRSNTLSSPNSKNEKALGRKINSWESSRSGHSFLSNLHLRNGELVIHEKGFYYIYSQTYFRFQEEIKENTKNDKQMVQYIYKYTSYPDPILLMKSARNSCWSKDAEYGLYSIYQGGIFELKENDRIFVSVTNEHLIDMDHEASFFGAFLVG

Turning to “native TRAIL (recombinant soluble human TRAIL from E. coli) (from UniProt P50591 114-281) (ligand)”, in experiment [1], the koff (as a rule, a measure of how fast the partners let go of each other) was 4.6e-05 s⁻¹ and the kon (usually a measure of how fast the partners come together) was 175000 M⁻¹ s⁻¹. Also, the fold faster dissociation than TRAIL-Trimer in experiment [2] was above 460 fold. Also, the fold faster association than TRAIL-Trimer in experiment [3] came out at 2 fold. Further, in experiment [4], the Kd (as a rule, the concentration at which binding is half-saturated) stood at 0.263 nM.

For the origin of these results see patent US12168686.
